The target of series [1] is T1, TspRK (ribokinase from Thermus sp. 2.9) (Thermus sp. 2.9, UniProt A0A0B0SD75).
T1 construct: gene rbsK; full-length, six-histidine tag (pET-23d+, NcoI/XhoI), codon-optimized synthetic gene; E. coli host
T1 sequence (A0A0B0SD75 1-301): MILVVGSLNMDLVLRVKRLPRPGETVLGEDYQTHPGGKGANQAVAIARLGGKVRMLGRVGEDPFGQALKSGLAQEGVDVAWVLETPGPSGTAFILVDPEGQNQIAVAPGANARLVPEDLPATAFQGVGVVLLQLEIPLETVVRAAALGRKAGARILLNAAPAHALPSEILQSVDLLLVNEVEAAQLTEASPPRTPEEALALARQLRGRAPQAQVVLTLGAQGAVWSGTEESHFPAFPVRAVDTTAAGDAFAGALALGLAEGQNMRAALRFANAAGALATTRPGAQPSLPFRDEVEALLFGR
As to the kind of experiment: HPLC of nucleotides (ATP consumption), nonlinear regression with substrate-inhibition equation. The following applies: 1 mM ATP, 5 mM MgCl2, 50 mM KCl, 10 mM KH2PO4, pH 8.0, 75 °C; substrate inhibition by binding of a second molecule; second site. It counts as biochemical. The source says:
HPLC of nucleotides (ATP consumption), nonlinear regression with substrate-inhibition equation on TspRK (ribokinase from Thermus sp. 2.9)

Substrate in series [2]: Nc1ncnc2c1ncn2[C@@H]1O[C@H](COP(=O)(O)OP(=O)(O)OP(=O)(O)O)[C@@H](O)[C@H]1O
As to the kind of experiment: HPLC of nucleotides (ATP consumption), nonlinear regression, Michaelis-Menten. It counts as biochemical, Thermus sp. 2.9. The note with it: 1 mM D-ribose, 5 mM MgCl2, 50 mM KCl, 10 mM KH2PO4, pH 8.0, 75 °C. The source says: HPLC of nucleotides (ATP consumption), nonlinear regression, Michaelis-Menten on TspRK (ribokinase from Thermus sp. 2.9)

For the molecule `OC1OC[C@@H](O)[C@@H](O)[C@H]1O` (stereo partly drawn) [D-ribose], the “Ki, μM” value in series [1] was 1,700 ± 400 μM.

B1: TspRK (ribokinase from Thermus sp. 2.9) (Thermus sp. 2.9) (protein)
chain: T1 sequence (A0A0B0SD75 1-301)
notes: full-length, six-histidine tag (pET-23d+, NcoI/XhoI), codon-optimized synthetic gene; E. coli host
As to B1, in series [2], the Km was determined as 75 ± 11 µM, the Vmax amounted to 13 µM/min/mg, the kcat was determined as 6.8 ± 0.7 s⁻¹ and the catalytic efficiency (kcat/Km) was 91000 M⁻¹ s⁻¹.

A word on the Km: it is the concentration of substrate that gives half-maximal velocity. As usually defined, the Vmax is the top rate of the reaction or transport when substrate is in excess. By kcat is commonly meant the number of substrate molecules converted per active site and unit of time at saturation. A word on the kcat/Km: it is the turnover number divided by the Michaelis constant.

These data come from article PMC5199209, “A Cascade of Thermophilic Enzymes As an Approach to the Synthesis of Modified Nucleotides” (Acta Naturae, 2016).
